Experimental data taken from the supplement of paper PMC7125110.
± gives the standard error. Fewer inactive variants are shown than the library holds.

B1: glmS ribozyme (parent)
chain: AUAAAAGCGCCAGAACUACAGAAAUGUAGUUGACGAGGAGGAGGUUUAUCGAAUUUUCGGCGGAUGCCUCCAAA

Key:
Settings in all cases: with glucosamine-6-phosphate
glucosamine-6-phosphate [1] = variants of: B1; experiment: self-cleavage kobs at 40 uM GlcN6P; higher = faster cleavage; RNA array
Outline: (§1)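 kcat and KM were obtained from weighted Michaelis–Menten fits across concentrations of kobs values. Those came from one- or two-exponential decay fits to per-tile medians normalised to baseline and to non-cleaving reference variants. The variants were barcoded ribozymes transcribed in situ by E. coli RNA polymerase on sequenced MiSeq chips and tracked through a hybridised Cy3 probe at 37 °C, with 40 μM to 10 mM glucosamine-6-phosphate in HEPES/KCl/Mg(OAc)2 buffer flowed in.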

glucosamine-6-phosphate [2] = variants of: B1; experiment: self-cleavage kobs at 160 uM GlcN6P; higher = faster cleavage; RNA array
Outline: as §1

glucosamine-6-phosphate [3] = variants of: B1; experiment: self-cleavage kobs at 640 uM GlcN6P; higher = faster cleavage; RNA array
Outline: as §1

glucosamine-6-phosphate [4] = variants of: B1; experiment: self-cleavage kobs at 2500 uM GlcN6P; higher = faster cleavage; RNA array
Outline: as §1

glucosamine-6-phosphate [5] = variants of: B1; experiment: self-cleavage kobs at 10000 uM GlcN6P; higher = faster cleavage; RNA array
Outline: as §1

| Variant | self-cleavage kobs at 40 uM GlcN6P (glucosamine-6-phosphate [1]) [s⁻¹] | self-cleavage kobs at 160 uM GlcN6P (glucosamine-6-phosphate [2]) [s⁻¹] | self-cleavage kobs at 640 uM GlcN6P (glucosamine-6-phosphate [3]) [s⁻¹] | self-cleavage kobs at 2500 uM GlcN6P (glucosamine-6-phosphate [4]) [s⁻¹] | self-cleavage kobs at 10000 uM GlcN6P (glucosamine-6-phosphate [5]) [s⁻¹] |
| --- | --- | --- | --- | --- | --- |
| G37C A42C C71G | < 1e-05 | < 1e-05 | < 1e-05 | < 1e-05 | < 1e-05 |
| G7A A52C | < 1e-05 | < 1e-05 | < 1e-05 | < 1e-05 | < 1e-05 |
| A14C A33U A53U U56G | < 1e-05 |  |  |  | 2.92e-05 ± 1.4e-05 |
| A6C A12G | < 1e-05 | < 1e-05 | < 1e-05 |  |  |
| G13U G43A C50A C61U C68U | < 1e-05 |  |  |  |  |
| C8A G51U C61U | < 1e-05 | < 1e-05 | < 1e-05 | < 1e-05 |  |
| G13A U31A A48C C50U G60U C67A | < 1e-05 |  |  |  | < 1e-05 |
| G13A U30C A42U | < 1e-05 |  |  |  | < 1e-05 |
| G32U A39U G60A C67U | < 1e-05 |  |  |  | < 1e-05 |
| G44A C58A C70U | < 1e-05 | < 1e-05 | < 1e-05 |  |  |
| A14C U30G C50A G60U G63U | < 1e-05 |  |  |  | < 1e-05 |
| G37U G43U | < 1e-05 |  | < 1e-05 |  | < 1e-05 |
| G29U C34A C61U | < 1e-05 |  | < 1e-05 |  |  |
| A12U G41U C61U | < 1e-05 | < 1e-05 | < 1e-05 | < 1e-05 | < 1e-05 |
| G32U A33C U45G U65A | < 1e-05 |  | < 1e-05 | < 1e-05 | < 1e-05 |
| C8G U47A A48C C70G | < 1e-05 | < 1e-05 | < 1e-05 |  | < 1e-05 |
| G35A C50G U55A C61G | 0.000205 ± 5.1e-05 |  |  |  | 0.000255 ± 4e-05 |
| G43A G44A G51A C58A | < 1e-05 |  |  |  | < 1e-05 |
| C8G G9A G29U U56A A64G C70A | < 1e-05 |  |  |  |  |
| G29U A36C G38A G40A | < 1e-05 |  |  | < 1e-05 | < 1e-05 |
| A42C U47G | < 1e-05 |  |  | < 1e-05 |  |
| C50G G66U | 0.000495 ± 0.00015 |  |  | 0.000123 ± 5.1e-05 |  |
| G32C G35U | < 1e-05 | < 1e-05 | < 1e-05 | < 1e-05 | < 1e-05 |

| Variant | self-cleavage kobs at 40 uM GlcN6P (glucosamine-6-phosphate [1]) [s⁻¹] | self-cleavage kobs at 160 uM GlcN6P (glucosamine-6-phosphate [2]) [s⁻¹] | self-cleavage kobs at 640 uM GlcN6P (glucosamine-6-phosphate [3]) [s⁻¹] | self-cleavage kobs at 2500 uM GlcN6P (glucosamine-6-phosphate [4]) [s⁻¹] | self-cleavage kobs at 10000 uM GlcN6P (glucosamine-6-phosphate [5]) [s⁻¹] |
| --- | --- | --- | --- | --- | --- |
| U46A G59U | < 1e-05 | < 1e-05 | < 1e-05 |  | < 1e-05 |
| G44U C50U C67G | < 1e-05 |  |  |  |  |
| C16G G37A C68U | < 1e-05 |  |  |  |  |
| A39C G40C U47C | < 1e-05 |  |  |  |  |
| G44C C68G | < 1e-05 | < 1e-05 | < 1e-05 | < 1e-05 | < 1e-05 |
| A42U U49G C68G | < 1e-05 |  |  |  |  |
| G37U A48U | < 1e-05 | < 1e-05 |  | < 1e-05 | < 1e-05 |
| A48U G60U | < 1e-05 | < 1e-05 | < 1e-05 | < 1e-05 | < 1e-05 |
| U30G A33U G60A | < 1e-05 |  | < 1e-05 | < 1e-05 |  |
| G41C A48U | < 1e-05 | < 1e-05 | < 1e-05 |  |  |
| G35U U69C | < 1e-05 | < 1e-05 |  | < 1e-05 | < 1e-05 |
| U55G C67G | 0.000127 ± 1.4e-05 | 0.000234 ± 5.1e-05 | 0.000819 ± 0.00012 | 0.000472 ± 0.0001 | 0.00597 ± 0.00099 |
| G38A C67U C71A | < 1e-05 |  |  |  | < 1e-05 |
| A12U A14U G32U | < 1e-05 |  |  |  | 8.48e-05 ± 2e-05 |
| A12U G44U U57A G59A | < 1e-05 |  |  |  | < 1e-05 |
| G44C G51U | < 1e-05 |  |  | < 1e-05 | < 1e-05 |
| G63U A64C C67G C70U | < 1e-05 |  | < 1e-05 |  | < 1e-05 |
| C61G A64G | < 1e-05 |  | < 1e-05 | < 1e-05 | < 1e-05 |
| A12U G32U C50G | 7.78e-05 ± 3.4e-05 |  |  |  |  |
| G9U C16G C71U | < 1e-05 |  |  | < 1e-05 |  |
| A14U G43A U49A C58U | < 1e-05 |  |  |  | < 1e-05 |
| G41C G43U | < 1e-05 | < 1e-05 | < 1e-05 | < 1e-05 | < 1e-05 |
| U30A G59A G63A | < 1e-05 |  |  |  |  |
